Results published in paper doi:10.1101/2025.04.28.650843 (bioRxiv, 2025).

Target: the molecule itself
Experiment: cryo-EM structure; single-particle reconstruction of intact PBS isolated from Synechococcus 7942 in 0.75 M K/Na-PO4 pH 7.0 with 0.0125% glutaraldehyde; diluted on the grid with 50 mM Tris pH 7.0; 2.98 Å

B1: phycocyanin (PC) (complex)
chain 1: not shown
chain 2: MTFDAFTKVVAQADARGEFLSDAQLDALSRLVAEGNKRIDTVNRITGNASSIVANAARALFAEQPSLIAPGGNAYTNRRMAACLRDMEIILRYVTYAVFTGDASILDDRCLNGLRETYLALGVPGASVAEGVRKMKDAAVAIVSDRNGITQGDCSAIISELGSYFDKAAAAVA
modifications: covalently attached phycocyanobilin (PCB), positions not printed | covalently attached phycocyanobilin (PCB), positions not given
notes: as m5; as m2; The alpha-beta monomer; it forms the hexamers of the peripheral rods (72 alpha-beta monomers in six rods of two hexamers each); also called alpha-beta monomer of phycocyanin
  stoichiometry N: 6
